The results in this text go back to patent publication US20220356229A1 (published 2022).

First the molecules themselves.
B1: anti-SARS-CoV-2 antibody 1149 (antibody, V domains shown)
VH: QVQLVQSGAEVKKPGASVKVSCKASGYTFASYDINWVRQATGQGPEWMGWMIPNIGNTGYAQKFQGRVTMTRNTSISTAYMELSSLTSEDTAVYYCARVSRLFNDFGLRHEAPVDFWGQGTRVTVSS
VL: QSVLTQPPSVSGAPGQRVTISCTGSSSNIGAGYDVHWYQQLPGTAPKLLIYGYSSRPSGVPDRFSGSKSGTSASLAITGLQAEDEADYYCQSYDSSLSVLFGGGTKLTVLG
B2: anti-SARS-CoV-2 antibody 1139 (antibody, V domains shown)
VH: QVQLVQSGAEVKKPGASVKVSCKASGYTFSSYEINWVRQATGQGLEWMGRMTLNSGNTGYAQNFQGRVTMTRDTSISTAYMELSGLRSEDTAVYYCARMRSGWPTHGRPDDYWGQGTLVTVSS
VL: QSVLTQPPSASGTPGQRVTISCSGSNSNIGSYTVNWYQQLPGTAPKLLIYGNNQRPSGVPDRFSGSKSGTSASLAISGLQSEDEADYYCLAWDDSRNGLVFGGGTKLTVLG
B3: anti-SARS-CoV-2 antibody 1075 (antibody, V domains shown)
VH: QVQLVQSGAEVKKPGASVKVSCKVSGYTLIELSMHWVRQAPGKGLEWMGGFDPEDGETIYAQKFQGRVTMTEDTSTDTAYMELSSLRSEDTAVYYCATEWAYYGSGSYLGYWGQGTLVTVSS
VL: EIVMTQSPATLSVSPGERATLSCRASQSVSSNLAWFQQKPGQAPRLLIYGASTRVTVIPARFSGSGSGTEFTLTISSLQSEDFAVYYCQQYNNWPRTFGQGTKVEIKR
B4: anti-SARS-CoV-2 antibody 1037 (antibody, V domains shown)
VH: QITLKESGPTLVKPTQTLTLTCTFSGFSLSTSGVGVGWIRQPPGKALEWLALIYWDDDKRYSPSLKSRLTITKDTSKNQVVLTMTNMDPVDTATYYCAHHTITRINDYWGQGTLVTVSS
VL: QSALTQPASVSGSPGQSITISCTATSSDVGAYNYVSWYQQHPGKAPKLMIYDVSKRPSGVSNRFSGSKSGNTASLTISGLQAEDEADYYCSSYTSSSTVFGGGTKLTVLG
B5: anti-SARS-CoV-2 antibody 851 (antibody, V domains shown)
VH: QITLKESGPTLVKPTQTLTLTCTFSGFSLSTNGVGMGWIRQPPGKALEWLALIYWDDDQFYSPSLKSRLTITRDTSKNQVVLTMTNMDPVDTATYYCAQAFYESFGFYSWGQGTLVTVSS
VL: NFMLTQPHSVSESPGKTVIISCTRSIGSIASNYVQWYQQRPGSAPTIVVFEDNERPSGVPDRFSGSIDRSSNSASLTISGLKTEDEADYYCQSYDGSSELVFGGGTKLTVLG
B6: anti-SARS-CoV-2 antibody 923 (antibody, V domains shown)
VH: EVQLVESGGGVVRPGGSLRLSCAASGFIFDDYDMTWVRQAPGKGLEWVSGISWNGGNTGYADSVKGRFTISRDNAKNSLYLQMNSLRAEDTALYHCAVIMSPIPRYSGYDWAGGAFDIWGQGTMVTVSS
VL: SSELTQDPAVSVALGQTVRITCQGDSLRSYYASWYQQKPGQVPILVIYDKNNRPSGIPDRFSGSSSGNTASLTITGAQAEDEADYYCNSRDSSGNAVVFGGGTKLTVLG
B7: anti-SARS-CoV-2 antibody 970 (antibody, V domains shown)
VH: EVQLVESGGGLVQPGGSLRLSCAASGFTFSSYWMSWVRQAPGKGLEWVANINKDGSEKYYVDSVKGRFTISRDNAKNSLYLQMNSLRAEDTAVYFCARDYRYFDWLLSQIDLEIDYFDYWGQGTLVTVSS
VL: not shown
B8: anti-SARS-CoV-2 antibody 1015 (antibody, V domains shown)
VH: EVQLVESGGGLVQPGGSLRLSCAASGFTFSSYWMHWVRQAPGKGLVWVSHINSDGSSTSYADSVKGRFTISRDNAKNTLYLQMNSLRAEDTAVYYCARGLRYFDLDVWGQGTTVTVSS
VL: QSVLTQPPSVSEAPRQRVTISCSGSSSNIGNNAVNWYQQLPGKAPKLLIFYDDLLPSGVSDRFSGSKSGTSASLAISGLQSEDEADYYCAAWDDSLNGGVFGGGTKLTVLG
B9: antibody 329 (antibody, V domains shown)
VH: EVQLVESGGGLVQPGGSLRLSCAASGFTFSSYWMHWVRQAPGKGLVWVSRINSDGSSTSYADSVKGRFTISRDNAKNTLYLQMNSLRAEDTAVYYCAREGIVATITLDYWGQGTLVTVSS
VL: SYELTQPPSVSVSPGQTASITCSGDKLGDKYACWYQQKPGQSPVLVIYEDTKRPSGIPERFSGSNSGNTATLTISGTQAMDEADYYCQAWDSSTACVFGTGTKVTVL
B10: antibody 323 (antibody, V domains shown)
VH: QVQLVQSGAEVKKPGASVKVSCKVSGYTLTELSMHWVRQAPGKGLEWMGGFDPEDGETIYAQKFQGRVTMTEDTSTDTAYMELSSLRSEDTAVYYCATSTIFAPGGWFDPWGQGTLVTVSS
VL: QSALTQPASVSGSPGQSITISCTGTSSDVGSYNLVSWYQQHPGKAPKLMIYEVSKRPSGVSNRFSGSKSGNTASLTISGLQAEDEADYYCCSYAGSTHYVFGTGTKVTVL
B11: antibody 324 (antibody, V domains shown)
VH: QVQLQESGPGLVKPSGTLSLTCAVSGGSISSSNWWSWVRQPPGKGLEWIGEIYHSGSTNYNPSLKSRVTISVDNSKNQFSLKLSSVTAADTAVYYCARESVAAAGISYYYYGMDVWGQGTTVTVSS
VL: EIVLTQSPGTLSLSPGERATLSCRASQSVSGRYLAWYQQKPGQAPRLLIYGASSRATGIPDRFSGSGSGTDFTLTISRLEPEDFAVYYCQHYGSSPGTFGQGTRLEIK
B12: antibody 328 (antibody, V domains shown)
VH: B11 VH
VL: DIQMTQSPSSLSASVGDRVTITCRASQGIRNDLGWYQQKPGKAPKRLIYAASSLQSGVPSRFSGSGSGTEFTLTVSGLQPEDFATYYCLQYNSSPLTFGGGTKVEIK
B13: antibody 316 (antibody, V domains shown)
VH: QVHLVESGGGVVQPGRSLRLSCAASGFTLTAYAMHWVRQAPGKRLEWVALISYDGSVKKYADSVKGRITVSGDTSTNTLHLQMNSLRADDTAVYYCVRGGVSGPNSFDLWGQGTMVTVSS
VL: DVVMTQSPLSLPVTLGQPASMSCRSSQSLEYSDGNTYVNWFHQRPGQSPRRLIYKVSYRDSGVPDRFSGSGSGTDFTLQISRVEAEDVGIYYCMQGTHWPVTFGQGTKVEIK
B14: antibody 327 (antibody, V domains shown)
VH: QVQLVESGGGVVQPGRSLRLSCAASGFNLSNYAMHWVRQASGKGLEWVSLISYDGSIKYYTDSVKGRFTVSGDNSKNTLFLQMNSLRPDDSALYYCVRGGVSGPNSFDMWGQGTTVTVSS
VL: B13 VL with M21I, E30V, H42Q, K55Q, Y58I, D60A, T77A, Q79K
B15: antibody 326 (antibody, V domains shown)
VH: QITLKESGPTLVKPTQTLTLTCTFSGFSLNTSGVGVGWIRQPPGKALEWLSLIFWNDDKRYSPSLRSRLTITKDTSKNQVVLTMTNMDPVDTATYFCAHRNSGWSLKFDSWGQGSLVTVSA
VL: DIQMTQSPSSVSASVGDRVTITCRARQGISSWLVWYQQKPGKAPKLLIFGASSLQSGVPSRFNASGTGTEFTLTISSLQPEDFATYYCQQADSFPITFGQGTRLEIK
B16: antibody 320 (antibody, V domains shown)
VH: QVQLVQSGAEVKKPGASVKVSCKASGYTFTSYGISWVRQAPGQGLEWMGWISAYNGNTNYAQKLQGRVTMTTDTSTRTAYMELRSLRSDDTAVYYCARVGCYYDSSGYSCAENFQHWGQGTLVTVSS
VL: QSVLTQPPSVSGAPGQRVTISCTGSSSNIGAGYDVHWYQQLPGTAPKLLIYGNSNRPSGVPDRFSGSKSGTSASLAITGLQAEDEADYYCQSYDSSLSALFGGGTKLTVL
B17: antibody 331 (antibody, V domains shown)
V domain 1: QITLKESGPTLVKPTETLTLTCSFSGFSLTKTGEAAGWIRQAPGRALEWVTVIFWDDDKRYSPSLQNRISVTKDTSKNQVVLRMTNVARFDTGTYFCWAMGGPGKEYFGQGTLVAVSS
V domain 2: QSVLTQPPSVSGAPGQRVTISCTGTSSSIGPYSDVHWYQHVSGKAPRLLIFGNSNRPSGVPDRFSGSKSGTSASLVIAGLQAEDEADYYCQSYDSSLGEIYVFGTGTTVTVL
B18: antibody 339 (antibody, V domains shown)
V domain 1: B17 V domain 1 with K31R, N67S, I69L, S70T, R83T, G93A, L113Q
V domain 2: B17 V domain 2
B19: antibody 317 (antibody, V domains shown)
VH: QVQLVQSGAEVKKPGASVKVSCKVSGYTLTELSMHWVRQAPGKGLEWMGGFDPEDGETIYAQKFQGRVTMTEDTSTDTAYMELSSLRSEDTAVYYCASSPAAAGTSQYYYYYGMDVWGQGTTVTVSS
VL: not shown
B20: antibody 379 (antibody, V domains shown)
VH: QVQLQESGPGLVKPSQTLSLTCTVSGGSISSGGYYWSWIRQHPGKGLEWIGYIYYSGSTYYNPSLKSRVTISVDTSKNQFSLKLSSVTAADTAVYYCARGPLDFWSGYFRLRYFDSWGQGTLVTVSS
VL: QSALTQPASVSGSPGQSITISCTGTSSDVGGYNYVSWYQQHPGKAPKLMIYDVTNRPSGVSNRFSGSKSGNTASLTISGLQAEDEADYYCSSYTSSSTCVFGTGTKVTVL
B21: antibody 380 (antibody, V domains shown)
VH: QVQLVESGGGVVQPGRSLRLSCAASGFTLKNYGMHWVRQAPGKGLEWVIVLSFDGSDEYKADSVRGRFTVSRDNSKNTLFLQMNSLRPDDTAVYYCAREQPTMIEGGRGPFDIWGQGTMVTVSS
VL: EVVMTQSPATLSVSPGDRATLSCRASQGVNSNLAWYQQKPGQAPRLLIYAASTRATGIPARFSASGSGTHFTLTISSLQSEDFAVYYCLQYNNWPPWTFGQGTKLEIK

Residue numbers refer to the chain shown, from its start. Some results are limits rather than exact numbers.

One test has as its target SARS-CoV-2 Spike (S) protein, wild type (SARS-CoV-2, UniProt P0DTC2 14-1208). The experiment in a line: HT-SPR Carterra LSA; mAb coupled to chip, Spike in solution; 1:1 Langmuir fit.
What is called Kd is the free concentration of one partner at which half of the binding sites on the other are occupied at equilibrium, for simple one-to-one binding. A word on the koff: it is a measure of how fast the partners let go of each other. Read a high koff as fast dissociation. The kon is the rate constant with which the complex forms. For B1, the Kd is at most 0.0151 nM, the koff was at most 1e-05 s⁻¹ and the on-rate (kon) stood at 664000 M⁻¹ s⁻¹.
The matching figures for B2: 0.0433 nM, 5.31e-05 s⁻¹ and 1.22e+06 M⁻¹ s⁻¹.
B3 registered a Kd of 0.717 nM, a koff of 3.04e-05 s⁻¹ and an association rate constant (kon) of 227000 M⁻¹ s⁻¹.
Regarding B4, the dissociation constant (Kd) was found to be 0.0319 nM, the koff was found to be 1.36e-05 s⁻¹ and the on-rate constant (kon) is 443000 M⁻¹ s⁻¹.
Turning to B5, the Kd was at most 1.44 nM, the koff is at most 1e-05 s⁻¹ and the kon came out at 6960 M⁻¹ s⁻¹.
B6 returned a Kd of at most 0.0161 nM, a koff of at most 1e-05 s⁻¹ and a kon of 653000 M⁻¹ s⁻¹.
Turning to B7, binding was characterised by a dissociation constant (Kd) of 0.482 nM, the koff was found to be 0.00034 s⁻¹ and the kon stood at 706000 M⁻¹ s⁻¹.
B8 came in with a Kd of 0.0439 nM, a koff of 2.19e-05 s⁻¹ and a kon of 500000 M⁻¹ s⁻¹.

For the next test, the target named is SARS-CoV-2 full length Spike protein, wild type (SARS-CoV-2, UniProt P0DTC2 14-1208).
Assay: not given
Turning to B9, the “bead binding signal (fold over isotype)” value is 497 fold over isotype.
B10: the “bead binding signal (fold over isotype)” value worked out at 994 fold over isotype.
For B11, the “bead binding signal (fold over isotype)” value amounted to 1.13 fold over isotype.
The same measure, in the same setting: the value for B12 was 1.2 fold over isotype; that for B13 was 442 fold over isotype.
Same read-out and setting: the value for B14 was 413 fold over isotype; that for B15 was 193 fold over isotype; that for B16 was 1200 fold over isotype.
B17: the “bead binding signal (fold over isotype)” value was 850 fold over isotype.
In the case of B18, the “bead binding signal (fold over isotype)” value is 874 fold over isotype.
In the case of B19, the “bead binding signal (fold over isotype)” value was 890 fold over isotype.

A further test addresses SARS-CoV Spike protein (SARS-CoV, UniProt P59594 14-1190).
Assay: not given
With B20, the “bead binding signal (median fluorescence, fold over isotype control)” value stood at 5.9 fold over isotype control.
For the molecule B21, the “bead binding signal (median fluorescence, fold over isotype control)” value amounted to 1.21 fold over isotype control.
